The target of test [1] is HCV NS3 fragment 1190-1216 (…) (Hepatitis C virus). Kind of test: flow cytometry titration on yeast displaying the NS3 1190-1216 fragment.
Test [2] addresses HCV NS4 fragment 1692-1713 (…) (Hepatitis C virus). Kind of test: flow cytometry titration on yeast displaying the NS4 1692-1713 fragment.
Test [3] concerns the target wildtype HCV core 27-39 fragment (…) (Hepatitis C virus). Kind of test: flow cytometry titration on yeast displaying the core 27-39 fragment (apparent KD).

Substitutions are numbered along the chain they refer to.

B1: anti-HCV NS3 chimeric antibody (HCV NS3 CHO 17-903-132sc171) (antibody, V domains shown)
VH: EVKLVESGGGLVQPGGSLKLSCATSGFTFSDYYMYWVRQTPEKRLEWAAYISNGAGSTYYPDTVKGRFTISRDNAKNTLYLQMSRLKSEDTAMYYCARGLWDGLDYWGQGTTLTVSS
VL: DVVMAQTPLSLPVSLGDQASISCRSSQSLVHSNGNTYLHWYLQRPGQSPKLLIYKVSNRFSGVPDRFSGSGSGTDFTLKISRVEAEDLGVYFCSQSTHVPYTFGGGTKLEIKR
As for B1, the Kd in test [1] was determined as 68000 pM.

B2: anti-HCV NS4 chimeric antibody (HCV NS4 CHO E99H6C34sc203) (antibody, V domains shown)
VH: QIQLVQSGPELKKPGETVKISCKASGYTFTDYSMHWVNQAPGKGLKWMGWINTETGEPTYADDFKGRFAFSLETSASTAYLQINNLKNEDTATYFCTRGGTGYWGQGTTLTVSS
VL: B1 VL with A5T, H31Y, R44K, Y101W
With B2, in test [2], the Kd is 500 pM.

B3: anti-HCV core chimeric antibody (HCV core 201-603-486-333) (antibody, V domains shown)
VH: QIQLVQSGPELQKPGKTVKISCKTSGYTFTDYPMHWVKQAPGKGLKWMGWINTETGEPTRVDDFKGRFAFSLETSASTAYLQINNLKDEDTATYFCARGGGVRRQVMDYWGQGTSVTVSS
VL: DIVMSQSPSSLAVSAGEKVTMSCKSSQSLLNSRTRKNYLVWYQQKPGQSPKLLIYWASTRDSGVPDRFTGSGSGTDFTLTISSVQAEDLAVYYCKQSYNLYTFGGGTKLEIKR
For the molecule B3, the Kd in test [3] was 700 pM.
